Measured values: patent US20240398920A1 (CYTOMX THERAPEUTICS, published 2024)
Like-named read-outs stand apart in the source and are kept apart here.

What was measured:
Test in all cases: cell-based or functional assay
[1] = molecular target: T1, human herpes virus entry mediator (HVEM) (human, UniProt Q92956 39-283)
T1 sequence (looked up): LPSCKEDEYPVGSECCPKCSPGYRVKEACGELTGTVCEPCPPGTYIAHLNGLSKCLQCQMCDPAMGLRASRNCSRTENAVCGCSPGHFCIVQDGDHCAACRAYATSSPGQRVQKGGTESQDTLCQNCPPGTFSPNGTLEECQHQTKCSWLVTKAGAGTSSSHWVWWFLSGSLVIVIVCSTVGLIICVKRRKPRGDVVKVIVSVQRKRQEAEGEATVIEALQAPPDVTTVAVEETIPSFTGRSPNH

[2] = molecular target: T2, human lymphotoxin beta receptor (LTbR) (human, UniProt P36941 31-435)
T2 sequence (P36941 31-435): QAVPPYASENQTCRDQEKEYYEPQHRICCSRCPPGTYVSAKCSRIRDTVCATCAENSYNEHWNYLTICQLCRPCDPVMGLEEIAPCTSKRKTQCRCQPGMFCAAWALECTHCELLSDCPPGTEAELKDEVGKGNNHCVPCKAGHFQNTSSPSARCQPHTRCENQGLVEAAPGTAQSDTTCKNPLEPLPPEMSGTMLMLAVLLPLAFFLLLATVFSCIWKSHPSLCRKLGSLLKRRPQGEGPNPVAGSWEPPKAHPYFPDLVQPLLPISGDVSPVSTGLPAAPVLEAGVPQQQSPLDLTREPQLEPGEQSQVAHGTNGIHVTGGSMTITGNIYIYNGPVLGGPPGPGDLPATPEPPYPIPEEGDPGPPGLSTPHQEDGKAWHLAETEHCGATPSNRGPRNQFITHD

[3] = molecular target: T1, human herpes virus entry mediator (HVEM); remark: listed apart in the source
[4] = molecular target: T2, human lymphotoxin beta receptor (LTbR); remark: listed apart in the source
[5] = molecular target: T1, human herpes virus entry mediator (HVEM); remark: listed apart in the source
[6] = molecular target: T1, human herpes virus entry mediator (HVEM); remark: listed apart in the source
[7] = molecular target: T1, human herpes virus entry mediator (HVEM); remark: listed apart in the source
[8] = molecular target: T1, human herpes virus entry mediator (HVEM); remark: listed apart in the source
[9] = molecular target: T2, human lymphotoxin beta receptor (LTbR); remark: listed apart in the source

B1: LIGHT-10GS-Strep (ProC1188) (ligand)
chain: QERRSHEVNPAAHLTGANSSLTGSGGPLLWETQLGLAFLRGLSYHDGALVVTKAGYYYIYSKVQLGGVGCPLGLASTITHGLYKRTPRYPEELELLVSQQSPCGRATSSSRVWWDSSFLGGVVHLEAGEEVVVRVLDERLVRLRDGTRSYFGAFMVSGGGSGGGSGSAWSHPQFEK
[1]
  EC50 [nM]: HVEM Reporter Assay: 0.843 nM
[2]
  EC50 [pM]: Lymphotoxin beta receptor Reporter Assay: 5.3 pM
[3]
  EC50 [nM]: HVEM Reporter Assay: 1 nM
[4]
  EC50 [pM]: Lymphotoxin beta receptor Reporter Assay: 5.3 pM

B2: ProC_mLm16_1490_LIGHT-10GS-Strep (ProC1192) (other)
chain: QGQSGSRHPCRHDPHIICYKFGGGSSGGSISSGLLSGRSDNIGGSQERRSHEVNPAAHLTGANSSLTGSGGPLLWETQLGLAFLRGLSYHDGALVVTKAGYYYIYSKVQLGGVGCPLGLASTITHGLYKRTPRYPEELELLVSQQSPCGRATSSSRVWWDSSFLGGVVHLEAGEEVVVRVLDERLVRLRDGTRSYFGAFMVSGGGSGGGSGSAWSHPQFEK
[5]
  masking efficiency, HVEM Reporter Assay (EC50 against control ProC1188 or protease-activated ProC1192): > 20 fold
[3]
  EC50 [nM]: HVEM Reporter Assay: 25.6 nM
[4]
  EC50 [pM]: Lymphotoxin beta receptor Reporter Assay: 31.3 pM

B3: ProC_LIGHT-10GS-His (ProC1189) (ligand)
chain: QERRSHEVNPAAHLTGANSSLTGSGGPLLWETQLGLAFLRGLSYHDGALVVTKAGYYYIYSKVQLGGVGCPLGLASTITHGLYKRTPRYPEELELLVSQQSPCGRATSSSRVWWDSSFLGGVVHLEAGEEVVVRVLDERLVRLRDGTRSYFGAFMVSGGGSGGGSGHHHHHH
[6]
  EC50 [nM]: HVEM Reporter Assay: 0.86 nM
[7]
  EC50 [nM]: HVEM Reporter Assay: 0.58 nM

B4: ProC1192 + uPa (ligand, not shown: small tags and cut ends)
chain: GGSQERRSHEVNPAAHLTGANSSLTGSGGPLLWETQLGLAFLRGLSYHDGALVVTKAGYYYIYSKVQLGGVGCPLGLASTITHGLYKRTPRYPEELELLVSQQSPCGRATSSSRVWWDSSFLGGVVHLEAGEEVVVRVLDERLVRLRDGTRSYFGAFMVSGGGSGGGSGSAWSHPQFEK
[8]
  EC50 [nM]: HVEM Reporter Assay: 0.999 nM
[9]
  EC50 [pM]: Lymphotoxin beta receptor Reporter Assay: 2 pM
